Results on two substances are retold here after article PMC2819690.

Experiment [1] deals with ΔN complex (Syb49–96:SyxH3:SNAP-25) (rat) (UniProt P63045). Kind of experiment: fluorescence polarisation. (Fluorescence polarisation rises when a labelled molecule tumbles more slowly, as on binding a larger partner.)
The target is the same in experiment [2]. In words: ITC. For orientation: ITC needs no label: the signal is the heat of the interaction.

The kon is a measure of how fast the partners come together. The Kd is the constant that tells how readily two partners part at equilibrium. A lower Kd goes with a tighter complex.

Consider “Syb1–96 V39A, V42A, S28C, labeled (from UniProt P63045 1-96) (domain or fragment)”, for which the kon in experiment [1] came to 263000 M⁻¹ s⁻¹. Turning to “Syb F77A (from UniProt P63045 1-96) (domain or fragment)”, in experiment [2], the Kd was determined as 800 pM and the dH is -18.8 kcal/mol.
